Reference: patent publication US20120190834A1

Columns and labels:
[1] = molecular target: TFPI (source not stated; Examples 8, 12 and 45), P10646
[2] = molecular target: recombinant human TFPI purified from a cell line from Novo Nordisk

Sequence of TFPI (source not stated; Examples 8, 12 and 45), P10646 (P10646 whole entry, looked up): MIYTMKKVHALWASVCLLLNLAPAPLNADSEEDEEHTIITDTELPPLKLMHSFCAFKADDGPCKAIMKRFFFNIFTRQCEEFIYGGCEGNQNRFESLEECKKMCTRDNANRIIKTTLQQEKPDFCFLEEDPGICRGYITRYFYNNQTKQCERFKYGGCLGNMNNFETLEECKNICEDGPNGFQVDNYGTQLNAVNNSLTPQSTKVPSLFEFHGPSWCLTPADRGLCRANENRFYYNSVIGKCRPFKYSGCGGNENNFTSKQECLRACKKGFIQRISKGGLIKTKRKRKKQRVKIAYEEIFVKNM

B1: tissue factor:Factor VIIa complex (sources not stated; Examples 8 and 12) (protein)
chain 1: SGTTNTVAAYNLTWKSTNFKTILEWEPKPVNQVYTVQISTKSGDWKSKCFYTTDTECDLTDEIVKDVKQTYLARVFSYPAGNVESTGSAGEPLYENSPEFTPYLETNLGQPTIQSFEQVGTKVNVTVEDERTLVRRNNTFLSLRDVFGKDLIYTLYYWKSSSSGKKTAKTNTNEFLIDVDKGENYCFSVQAVIPSRTVNRKSTDSPVECMGQEKGEFREIFYIIGAVVFVVIILVIILAISLHKCRKAGVGQSWKENSPLNVS
chain 2: ANAFLEELRPGSLERECKEEQCSFEEAREIFKDAERTKLFWISYSDGDQCASSPCQNGGSCKDQLQSYICFCLPAFEGRNCETHKDDQLICVNENGGCEQYCSDHTGTKRSCRCHEGYSLLADGVSCTPTVEYPCGKIPILEKRNASKPQGR
chain 3: IVGGKVCPKGECPWQVLLLVNGAQLCGGTLINTIWVVSAAHCFDKIKNWRNLIAVLGEHDLSEHDGDEQSRRVAQVIIPSTYVPGTTNHDIALLRLHQPVVLTDHVVPLCLPERTFSERTLAFVRFSLVSGWGQLLDRGATALELMVLNVPRLMTQDCLQQSRKVGDSPNITEYMFCAGYSDGSKDSCKGDSGGPHATHYRGTWYLTGIVSWGQGCATVGHFGVYTRVSQYIEWLQKLMRSEPRPGVLLRAPFP
TF:FVIIa activity, hydrolysis of fluorogenic substrate SN-17c; 8 nM TFPI [1]: TFPI inhibited approximately 50% of TF:FVIIa activity under these conditions
rate of FXa generation in the extrinsic tenase (Xase) assay (chromogenic FXa substrate, A405), normalised at 4 minutes; 1 nM TFPI [1]: TFPI reduced the rate of FXa generation at 4 minutes by nearly 70%

B2: extrinsic Xase complex: re-lipidated recombinant human tissue factor (Innovin) and factor VIIa (Enzyme Research Laboratories) (protein)
chain 1: SGTTNTVAAYNLTWKSTNFKTILEWEPKPVNQVYTVQISTKSGDWKSKCFYTTDTECDLTDEIVKDVKQTYLARVFSYPAGNVESTGSAGEPLYENSPEFTPYLETNLGQPTIQSFEQVGTKVNVTVEDERTLVRRNNTFLSLRDVFGKDLIYTLYYWKSSSSGKKTAKTNTNEFLIDVDKGENYCFSVQAVIPSRTVNRKSTDSPVECMGQEKGEFREIFYIIGAVVFVVIILVIILAISLHKCRKAGVGQSWKENSPLNVS
chain 2: ANAFLEELRPGSLERECKEEQCSFEEAREIFKDAERTKLFWISYSDGDQCASSPCQNGGSCKDQLQSYICFCLPAFEGRNCETHKDDQLICVNENGGCEQYCSDHTGTKRSCRCHEGYSLLADGVSCTPTVEYPCGKIPILEKRNASKPQGR
chain 3: IVGGKVCPKGECPWQVLLLVNGAQLCGGTLINTIWVVSAAHCFDKIKNWRNLIAVLGEHDLSEHDGDEQSRRVAQVIIPSTYVPGTTNHDIALLRLHQPVVLTDHVVPLCLPERTFSERTLAFVRFSLVSGWGQLLDRGATALELMVLNVPRLMTQDCLQQSRKVGDSPNITEYMFCAGYSDGSKDSCKGDSGGPHATHYRGTWYLTGIVSWGQGCATVGHFGVYTRVSQYIEWLQKLMRSEPRPGVLLRAPFP
FXa generation by the extrinsic Xase (chromogenic FXa substrate); 2 nM TFPI [2]: curve #6 shows that TFPI shuts down Xa generation in the absence of ARC19499

B3: Factor Xa (source not stated; Example 45) (protein)
chain 1: ANSFLEEMKKGHLERECMEETCSYEEAREVFEDSDKTNEFWNKYKDGDQCETSPCQNQGKCKDGLGEYTCTCLEGFEGKNCELFTRKLCSLDNGDCDQFCHEEQNSVVCSCARGYTLADNGKACIPTGPYPCGKQTLER
chain 2: IVGGQECKDGECPWQALLINEENEGFCGGTILSEFYILTAAHCLYQAKRFKVRVGDRNTEQEEGGEAVHEVEVVIKHNRFTKETYDFDIAVLRLKTPITFRMNVAPACLPERDWAESTLMTQKTGIVSGFGRTHEKGRQSTRLKMLEVPYVDRNSCKLSSSFIITQNMFCAGYDTKQEDACQGDSGGPHVTRFKDTYFVTGIVSWGEGCARKGKYGIYTKVTAFLKWIDRSMKTRGLPKAKSHAPEVITSSPLK
FXa (1 nM) cleavage of chromogenic substrate S-2765, substrate added last [1]: In the presence of ≧8 nM TFPI, inhibition is nearly complete under these conditions and little product is formed

B4: prothrombinase complex: factor Xa (Enzyme Research Laboratories) and factor Va (Haematologic Technologies) on phospholipid membrane (protein)
chain 1: ANSFLEEMKKGHLERECMEETCSYEEAREVFEDSDKTNEFWNKYKDGDQCETSPCQNQGKCKDGLGEYTCTCLEGFEGKNCELFTRKLCSLDNGDCDQFCHEEQNSVVCSCARGYTLADNGKACIPTGPYPCGKQTLER
chain 2: IVGGQECKDGECPWQALLINEENEGFCGGTILSEFYILTAAHCLYQAKRFKVRVGDRNTEQEEGGEAVHEVEVVIKHNRFTKETYDFDIAVLRLKTPITFRMNVAPACLPERDWAESTLMTQKTGIVSGFGRTHEKGRQSTRLKMLEVPYVDRNSCKLSSSFIITQNMFCAGYDTKQEDACQGDSGGPHVTRFKDTYFVTGIVSWGEGCARKGKYGIYTKVTAFLKWIDRSMKTRGLPKAKSHAPEVITSSPLK
chain 3: AQLRQFYVAAQGISWSYRPEPTNSSLNLSVTSFKKIVYREYEPYFKKEKPQSTISGLLGPTLYAEVGDIIKVHFKNKADKPLSIHPQGIRYSKLSEGASYLDHTFPAEKMDDAVAPGREYTYEWSISEDSGPTHDDPPCLTHIYYSHENLIEDFNSGLIGPLLICKKGTLTEGGTQKTFDKQIVLLFAVFDESKSWSQSSSLMYTVNGYVNGTMPDITVCAHDHISWHLLGMSSGPELFSIHFNGQVLEQNHHKVSAITLVSATSTTANMTVGPEGKWIISSLTPKHLQAGMQAYIDIKNCPKKTRNLKKITREQRRHMKRWEYFIAAEEVIWDYAPVIPANMDKKYRSQHLDNFSNQIGKHYKKVMYTQYEDESFTKHTVNPNMKEDGILGPIIRAQVRDTLKIVFKNMASRPYSIYPHGVTFSPYEDEVNSSFTSGRNNTMIRAVQPGETYTYKWNILEFDEPTENDAQCLTRPYYSDVDIMRDIASGLIGLLLICKSRSLDRRGIQRAADIEQQAVFAVFDENKSWYLEDNINKFCENPDEVKRDDPKFYESNIMSTINGYVPESITTLGFCFDDTVQWHFCSVGTQNEILTIHFTGHSFIYGKRHEDTLTLFPMRGESVTVTMDNVGTWMLTSMNSSPRSKKLRLKFRDVKCIPDDDEDSYEIFEPPESTVMATRKMHDRLEPEDEESDADYDYQNRLAAALGIR
chain 4: SNNGNRRNYYIAAEEISWDYSEFVQRETDIEDSDDIPEDTTYKKVVFRKYLDSTFTKRDPRGEYEEHLGILGPIIRAEVDDVIQVRFKNLASRPYSLHAHGLSYEKSSEGKTYEDDSPEWFKEDNAVQPNSSYTYVWHATERSGPESPGSACRAWAYYSAVNPEKDIHSGLIGPLLICQKGILHKDSNMPMDMREFVLLFMTFDEKKSWYYEKKSRSSWRLTSSEMKKSHEFHAINGMIYSLPGLKMYEQEWVRLHLLNIGGSQDIHVVHFHGQTLLENGNKQHQLGVWPLLPGSFKTLEMKASKPGWWLLNTEVGENQRAGMQTPFLIMDRDCRMPMGLSTGIISDSQIKASEFLGYWEPRLARLNNGGSYNAWSVEKLAAEFASKPWIQVDMQKEVIITGIQTQGAKHYLKSCYTTEFYVAYSSNQINWQIFKGNSTRNVMYFNGNSDASTIKENQFDPPIVARYIRISPTRAYNRPTLRLELQGCEVNGCSTPLGMENGKIENKQITASSFKKSWWGDYWEPFRARLNAQGRVNAWQAKANNNKQWLEIDLLKIKKITAIITQGCKSLSSEMYVKSYTIHYSEQGVEWKPYRLKSSMVDKIFEGNTNTKGHVKNFFNPPIISRFIRVIPKTWNQSIALRLELFGCDIY
prothrombinase activity (thrombin generation from prothrombin, chromogenic thrombin substrate); 1 nM TFPI (fraction of activity) [2]: 0.33

B5: Factor Xa (Enzyme Research Laboratories) (protein)
chain 1: ANSFLEEMKKGHLERECMEETCSYEEAREVFEDSDKTNEFWNKYKDGDQCETSPCQNQGKCKDGLGEYTCTCLEGFEGKNCELFTRKLCSLDNGDCDQFCHEEQNSVVCSCARGYTLADNGKACIPTGPYPCGKQTLER
chain 2: IVGGQECKDGECPWQALLINEENEGFCGGTILSEFYILTAAHCLYQAKRFKVRVGDRNTEQEEGGEAVHEVEVVIKHNRFTKETYDFDIAVLRLKTPITFRMNVAPACLPERDWAESTLMTQKTGIVSGFGRTHEKGRQSTRLKMLEVPYVDRNSCKLSSSFIITQNMFCAGYDTKQEDACQGDSGGPHVTRFKDTYFVTGIVSWGEGCARKGKYGIYTKVTAFLKWIDRSMKTRGLPKAKSHAPEVITSSPLK
FXa (0.2 nM) cleavage of chromogenic substrate Pefachrome FXa 5523; 2 nM TFPI [2]: When TFPI and the chromogenic substrate were added to FXa at the same time, the rate of substrate cleavage decreased gradually as FXa was inhibited by TFPI
